For data set [1] the following is noted: Humira Drug Approval Package; cited from earlier work.
Data set [2] concerns Normal Human Dermal Fibroblasts (NHDF). In words: XTT viability of NHDF cells. The format is cell-based. Particulars: polypeptides at 750 nM, IL-17 receptor 10 nM, 24 hours. Here is the method: IL-17A induces the production of IL-6 in fibroblasts in a dose-dependent manner (Yao et al. (1995) Immunity, 3, p. 811-821). […] Cell culture supernatants were taken after 24 h of stimulation and assayed for IL-6 with ELISA. […] Only viable and metabolic active cells are capable of reducing the tetrazolium salt XTT to orange-colored compounds of formazan (Scudiero, et al. (1988), Cancer Res. 48, p. 4827-4833).
400 μl of a cell suspension containing about 1×10^4 Normal Human Dermal Fibroblasts (PromoCell, NHDF-c, C12300) were distributed per well (24 well plate, Nunc or TPP) and cultured for 24 hours at 37° C. (medium: Fibroblast Growth Medium C-23010, PromoCell). […] After 24 hours incubation at 37° C. the supernatant was aspirated and the IL-6 concentration was determined by ELISA according to the manufacturer's instructions (IL-6 ELISA kit, R&D Systems). Immediately after the aspiration of the supernatant the XTT-containing medium was added (Cell Proliferation Kit II, Roche) and cell viability was determined according to the manufacturer's instructions.
(In general: Formazan colour is commonly taken as a measure of viable cells.)

The target of data set [3] is T1, IL-17A (Homo sapiens, UniProt Q16552).
T1 construct: purchased R&D Systems
The experiment in a line: IL-17A inhibition cell assay (IL-6 production in NHDF, 50 ng/ml IL-17A). In kind it is cell-based. The settings on record: NHDF cells in presence of IL-17A.

Data set [4] concerns the target T1, IL-17A. In words: Acute inflammation model: human IL-17A induced KC production in mice. The format is in vivo, mouse. The settings on record: C57BL/6 mice, co-injected s.c. with 3 μg human IL-17A (17 μg 2C1, 16 μg wt), 2 hours. Here is the method:
Human IL-17A is able to bind and stimulate the mouse IL-17 receptor, leading to an elevation and subsequent secretion of mouse KC (CXCL1) chemokine (Allan B. et al. (2007) WO2007/070750 of Eli Lilly, US). The observed KC levels 2 hours after s.c. IL-17A injection (3 μg) were between […] in the serum, compared to around […] KC basal levels.
The blood samples were centrifuged for 10 min at 9500×g and the serum was stored at −20° until ELISA analysis was performed. KC levels in serum were determined using the commercially available Quantikine mouse CLCL1/KC kit (R&D Systems).
After 20-60 minutes, 3 μg/mouse of human IL-17A (R&D Systems) was injected s.c. and 2 hours after IL-17A injection, blood samples were taken from the vena saphena with the capillary Microvette CB 300 (Sarstedt). The blood samples were centrifuged for 10 min at 9500×g and the serum was stored at −20° until ELISA analysis was performed. KC levels in serum were determined using the commercially available Quantikine mouse CLCL1/KC kit (R&D Systems).

Data set [5] relates to F9 murine teratocarcinoma. In words: Quantitative biodistribution of 125I-labeled protein in tumor-bearing mice. Particulars: i.v., 24 h. The format is in vivo.

T1 sequence (Q16552 20-155 limits assumed): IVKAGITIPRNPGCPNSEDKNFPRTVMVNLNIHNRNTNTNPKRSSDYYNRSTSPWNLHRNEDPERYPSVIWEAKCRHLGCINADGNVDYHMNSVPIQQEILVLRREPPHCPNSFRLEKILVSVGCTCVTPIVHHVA

For adalimumab, the “half-life of other human antibodies in mice” value in data set [1] was 102 to 193 h.
Turning to “IL-17A receptor-Fc chimera: commercially available human IL-17A receptor Fc chimera (R&D Systems)”, the “cell viability (XTT assay)” value in data set [2] is reported as “all cells were viable”.
On to “Fyn SH3 wt: wild type SH3 domain of Fyn kinase, SEQ ID NO: 1 (SEQ ID NO: 339 in Example 5)”, for which the “inhibition of IL-6 production” value with IL-17A [3] was “no inhibition of IL-6 production”. Besides, the “KC levels in mouse serum” value in the data set with IL-17A [4] is “as high as in the group receiving IL-17A only”. Besides, in data set [5], the “accumulation in the tumor” value is recorded as “no enrichment”.
